Biological target: acid alpha-glucosidase (GAA phosphodiester) (Homo sapiens, UniProt P10253)
Assay: SPR

Kd: ~60 nM
B1: CI-MPR domains 1-5 1-726 (protein)
chain: MGAAAGRSPHLGPAPARRPQRSLLLLQLLLLVAAPGSTQAQAAPFPELCSYTWEAVDTKNNVLYKINICGSVDIVQCGPSSAVCMHDLKTRTYHSVGDSVLRSATRSLLEFNTTVSCDQQGTNHRVQSSIAFLCGKTLGTPEFVTATECVHYFEWRTTAACKKDIFKANKEVPCYVFDEELRKHDLNPLIKLSGAYLVDDSDPDTSLFINVCRDIDTLRDPGSQLRACPPGTAACLVRGHQAFDVGQPRDGLKLVRKDRLVLSYVREEAGKLDFCDGHSPAVTITFVCPSERREGTIPKLTAKSNCRYEIEWITEYACHRDYLESKTCSLSGEQQDVSIDLTPLAQSGGSSYISDGKEYLFYLNVCGETEIQFCNKKQAAVCQVKKSDTSQVKAAGRYHNQTLRYSDGDLTLIYFGGDECSSGFQRMSVINFECNKTAGNDGKGTPVFTGEVDCTYFFTWDTEYACVKEKEDLLCGATDGKKRYDLSALVRHAEPEQNWEAVDGSQTETEKKHFFINICHRVLQEGKARGCPEDAAVCAVDKNGSKNLGKFISSPMKEKGNIQLSYSDGDDCGHGKKIKTNITLVCKPGDLESAPVLRTSGEGGCFYEFEWHTAAACVLSKTEGENCTVFDSQAGFSFDLSPLTKKNGAYKVETKKYDFYINVCGPVSVSPCQPDSGACQVAKSDEKTWNLGLSNAKLSYYDGMIQLNYRGGTPYNNERHTPRATL
modifications: GAA N-glycans modified to contain only phosphodiesters

Source: article PMC7481795 (2020)
